# Source: US10195578B2, “Peptide library production method, peptide library, and screening method” (The University of Tokyo, priority 2010, dated 2019)
# Where a name gives a salt, the structure may show the parent alone. Where a SMILES comes first, the peptide text is derived from it. Bridges are numbered along the chain shown (N, C = ends). Where no end group is shown, it is not given here. [ ]: non-standard residue; d: D form. The star is where a group is joined. Tfa = O=C(C(F)(F)F)*
# Target: T1, SIRT2 (Homo sapiens, UniProt Q8IXJ6)
# T1 sequence (Q8IXJ6 1-389): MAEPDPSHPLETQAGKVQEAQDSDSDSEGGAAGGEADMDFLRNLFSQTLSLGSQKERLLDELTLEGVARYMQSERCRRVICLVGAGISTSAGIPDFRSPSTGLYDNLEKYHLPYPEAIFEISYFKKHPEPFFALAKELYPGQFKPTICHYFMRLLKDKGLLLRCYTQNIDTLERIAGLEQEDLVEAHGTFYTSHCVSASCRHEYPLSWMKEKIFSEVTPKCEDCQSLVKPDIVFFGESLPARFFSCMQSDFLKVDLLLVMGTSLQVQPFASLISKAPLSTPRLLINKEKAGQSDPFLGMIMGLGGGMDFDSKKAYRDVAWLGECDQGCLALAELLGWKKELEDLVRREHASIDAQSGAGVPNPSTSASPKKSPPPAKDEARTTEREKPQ
# Experiment: Evaluation of inhibitory activity of peptides against SIRT2 (fluorescence-using system)
# Assay type: biochemical
# Conditions: peptide at 1 μM; FIG. 3
# Description: In an evaluation system using fluorescence, the inhibitory activity of the selected peptides against SIRT2 was studied. More specifically, first, peptides to be deacetylated with SIRT2 each having, at both ends thereof, a fluorescent group and a quenching group is deacetylated by mixing with SIRT2. When the resulting peptides are reacted with protease that cleaves only a deacetylated peptide, the quenching group is dissociated from the fluorescent group of only the peptides deacetylated with SIRT2 and fluorescence is emitted. During this deacetylation reaction, presence of an inhibitor against SIRT2 retards the progress of deacetylation of the substrate peptide and fluorescence intensity obtained in the end decreases. This means that the inhibitory ability of the selected peptides can be evaluated by the intensity of fluorescence observed in the end.
row,Compound,"inhibitory ability against SIRT2 (activity of SIRT2, fluorescence intensity)"
1,"XYNTIIZTYGC ({CH2CO}-[dY]YNTIIK(trifluoroacetyl)TYGCGSGSGS; thioether N-11 (inferred)) [2D-03, thioether-cyclized peptide from NNC library; X = α-N-chloroacetyl-D-tyrosine, Z = ε-N-trifluoroacetyllysine]",completely suppressed the activity of SIRT2
2,"CC[C@H](C)[C@@H]1NC(=O)[C@H](CCCNC(=N)N)NC(=O)[C@H](Cc2ccccc2)NC(=O)[C@H](CC(N)=O)NC(=O)[C@H](CO)NC(=O)[C@H](Cc2ccc(O)cc2)NC(=O)CSC[C@@H](C(=O)NCC(=O)N[C@@H](CO)C(=O)NCC(=O)N[C@@H](CO)C(=O)NCC(=O)N[C@@H](CO)C(=O)O)NC(=O)[C@H](CO)NC(=O)[C@H](CO)NC(=O)[C@H](CC(N)=O)NC(=O)[C@H](CO)NC(=O)[C@H](Cc2ccc(O)cc2)NC(=O)[C@H](CCCNC(=N)N)NC(=O)[C@H](CCCCNC(=O)C(F)(F)F)NC1=O [2L-08, XSNFRIZRYSNSSC] ({CH2CO}-YSNFRIK(Tfa)RYSNSSCGSGSGS-OH; thioether N-14; N-terminus and C-terminus assumed)",completely suppressed the activity of SIRT2
3,XHTYHNZRRTNYYC [2L-05],completely suppressed the activity of SIRT2
4,"CC[C@H](C)[C@@H]1NC(=O)[C@H](CCCNC(=N)N)NC(=O)[C@H](Cc2ccc(O)cc2)NC(=O)[C@H](CC(=O)O)NC(=O)[C@H](Cc2c[nH]cn2)NC(=O)[C@@H](Cc2ccc(O)cc2)NC(=O)CSC[C@@H](C(=O)NCC(=O)N[C@@H](CO)C(=O)NCC(=O)N[C@@H](CO)C(=O)NCC(=O)N[C@@H](CO)C(=O)O)NC(=O)[C@@H]2CCCN2C(=O)[C@H](Cc2ccc(O)cc2)NC(=O)[C@H]([C@@H](C)O)NC(=O)[C@H](Cc2c[nH]cn2)NC(=O)[C@H](Cc2ccc(O)cc2)NC(=O)[C@H](CCCNC(=N)N)NC(=O)[C@H](CCCCNC(=O)C(F)(F)F)NC1=O [2D-08, XHDYRIZRYHTYPC] ({CH2CO}-[dY]HDYRIK(Tfa)RYHTYPCGSGSGS-OH; thioether N-14; N-terminus and C-terminus assumed)",completely suppressed the activity of SIRT2
